± gives the uncertainty stated by the source.

A short description of this data set: self-splicing fitness, log relative to wild type (ln ratio); higher = more splicing; Tetrahymena group I intron in knt gene, E. coli kanamycin selection, DiMSum; sequences stand for … in CUCUCU…GGAGGGAAAAGUUAUCAGGCAUGCACCUGGUAGCUAGUCUUUAAACCAAUAGAUUGCAUCGGUUUAAAAGGCAAGACCGUCAAAUUGCGGGAAAGGGGUCAACAGCCGUUCAGUACCAAGUCUCAGGGGAAACUUUGAGAUGGCCUUGCAAAGGGUAUGGUAAUAAGCUGACGGACAUGGUCCUAACCACGCAGCCAAGUCCUAAGUCAACAGAUCUUCUGUUGAUAUGGAUGCAGUUCACAGACUAAAUGUCGGUCGGGGAAGAUGUAUUCUUCUCAUAAGAUAUAGUCGGACCUCUCCUUAAUGGGAGCUAGCGGAUGAAGUGAUGCAACACUGGAGCCGCUGGGAACUAAUUUGUAUGCGAAAGUAUAUUGAUUAGUUUUGGAGUACUCGUGGUCG
A digest of the protocol:
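Colonies from six replicate transformations of E. coli BL21(DE3) were pooled and amplicon-sequenced on an Illumina HiSeq 2500. The library placed an intron with all eight P1ex-region nucleotides randomised inside the knt kanamycin-resistance gene on pET-22b(+), and cells grew overnight at 37°C or 30°C on LB agar with or without 25 μg/mL kanamycin (plus 100 μg/mL carbenicillin, 50 μM IPTG, 0.2% rhamnose). Fitness is the DiMSum error-weighted combination of wild-type-normalised replicate fold changes, kanamycin versus none.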

With CUGAAGCAAUAUUACGGUGC, where the note is “30 °C”, the “self-splicing fitness (ln)” value is -2.89 ± 0.25.
In the case of CCCCAGCAAUAUUACGCUUU, the “self-splicing fitness (ln)” value is, setting by setting: (30 °C) -4.4 ± 0.25; (37 °C) -3.36 ± 0.21.
Taken in the same sequence, the figures for UGCAAGCAAUAUUACGGUUU were -2.53 ± 0.071 and -1.28 ± 0.071.
Taken in the same sequence, the figures for ACGCAGCAAUAUUACGGCAU were -0.55 ± 0.059 and 0.0845 ± 0.072.
Take CUAUAGCAAUAUUACGGAAU: the “self-splicing fitness (ln)” value (30 °C) was -3.5 ± 0.4.
Regarding CAAUAGCAAUAUUACGGGUA, the “self-splicing fitness (ln)” value by setting is: (30 °C) -3.9 ± 0.21; (37 °C) -3.12 ± 0.18.
Taken in the same sequence, the figures for GUGUAGCAAUAUUACGGCGG were -2.81 ± 0.23 and -1.6 ± 0.19.
Consider AGGUAGCAAUAUUACGUGAC, for which the “self-splicing fitness (ln)” value is -2.734 ± 0.023 (30 °C) and -1.69 ± 0.037 (37 °C).
Taken in the same sequence, the figures for CUUCAGCAAUAUUACGUUUU were -1.52 ± 0.13 and -2.46 ± 0.26.
Regarding AGAUAGCAAUAUUACGCGUA, the “self-splicing fitness (ln)” value was -1.2 ± 0.12 (30 °C) and -1.41 ± 0.13 (37 °C).
Taken in the same sequence, the figures for GCAUAGCAAUAUUACGGAUA were -1.81 ± 0.22 and -0.643 ± 0.18.
In the case of ACUAAGCAAUAUUACGGCAA, the “self-splicing fitness (ln)” value runs as follows: (30 °C) -0.655 ± 0.089; (37 °C) -0.133 ± 0.1.
CGACAGCAAUAUUACGGUCU: the “self-splicing fitness (ln)” value is, setting by setting: (30 °C) -0.546 ± 0.039; (37 °C) 0.187 ± 0.056.
With CCAAAGCAAUAUUACGAAGG, the “self-splicing fitness (ln)” value runs as follows: (30 °C) -3.61 ± 0.15; (37 °C) -2.9 ± 0.3.
As for CGUAAGCAAUAUUACGGAGU, the “self-splicing fitness (ln)” value reads like this: (30 °C) -3.13 ± 0.17; (37 °C) -2.89 ± 0.19.
With GUACAGCAAUAUUACGAGGA, the “self-splicing fitness (ln)” value reads like this: (30 °C) -3.11 ± 0.29; (37 °C) -1.88 ± 0.23.
For GAGGAGCAAUAUUACGUCUA, the “self-splicing fitness (ln)” value is -2.04 ± 0.12 (30 °C) and -0.687 ± 0.15 (37 °C).
Taken in the same sequence, the figures for UCCUAGCAAUAUUACGAGGC were -2.31 ± 0.13 and -3.06 ± 0.26.
Taken in the same sequence, the figures for CAUUAGCAAUAUUACGGAUU were -3.12 ± 0.2 and -1.23 ± 0.21.
Taken in the same sequence, the figures for CAGAAGCAAUAUUACGGGAU were -3.18 ± 0.17 and -2.9 ± 0.2.
As to ACCAAGCAAUAUUACGCAAU, the “self-splicing fitness (ln)” value (30 °C) is -2.01 ± 0.1 and the “self-splicing fitness (ln)” value (37 °C) was -1.04 ± 0.1.
Taken in the same sequence, the figures for GGCUAGCAAUAUUACGUCCA were -1.3 ± 0.18 and -1.05 ± 0.2.
Taken in the same sequence, the figures for UUUAAGCAAUAUUACGAAUU were -1.6 ± 0.17 and -1.58 ± 0.2.
Taken in the same sequence, the figures for ACAAAGCAAUAUUACGCACU were -0.0924 ± 0.069 and 0.264 ± 0.089.
On to GAUCAGCAAUAUUACGGGGG, for which the “self-splicing fitness (ln)” value by setting is: (30 °C) -3.25 ± 0.18; (37 °C) -2.51 ± 0.18.
In the case of CGACAGCAAUAUUACGCUCC, the “self-splicing fitness (ln)” value runs as follows: (30 °C) -1.44 ± 0.12; (37 °C) 0.42 ± 0.13.
For UUAGAGCAAUAUUACGCGGC, the “self-splicing fitness (ln)” value (37 °C) was -0.994 ± 0.26.
As for UCCGAGCAAUAUUACGCCGA, the “self-splicing fitness (ln)” value (30 °C) was -1.56 ± 0.23 and the “self-splicing fitness (ln)” value (37 °C) is -0.047 ± 0.16.
Taken in the same sequence, the figures for CCCCAGCAAUAUUACGGUGA were -1.76 ± 0.085 and -1.77 ± 0.11.
Taken in the same sequence, the figures for GACAAGCAAUAUUACGCUAA were -3.01 ± 0.23 and -2.11 ± 0.2.
As for GCAGAGCAAUAUUACGGUCG, the “self-splicing fitness (ln)” value is, setting by setting: (30 °C) -3.23 ± 0.12; (37 °C) -1.44 ± 0.1.
Take CGAGAGCAAUAUUACGUCCA: the “self-splicing fitness (ln)” value (37 °C) was -3.02 ± 0.43.
In the case of UCAUAGCAAUAUUACGAGGC, the “self-splicing fitness (ln)” value reads like this: (30 °C) -2.86 ± 0.35; (37 °C) -1.44 ± 0.2.
For the sequence UGGAAGCAAUAUUACGAGCU, the “self-splicing fitness (ln)” value (30 °C) was -1.95 ± 0.16 and the “self-splicing fitness (ln)” value (37 °C) is -0.801 ± 0.15.
Taken in the same sequence, the figures for UGCGAGCAAUAUUACGUGUG were -2.78 ± 0.18 and -2.15 ± 0.15.
Taken in the same sequence, the figures for ACUGAGCAAUAUUACGCUUU were -2.53 ± 0.21 and -1.37 ± 0.18.
In the case of UCUUAGCAAUAUUACGUUAC, the “self-splicing fitness (ln)” value (37 °C) is -2.83 ± 0.31.
On to GUCUAGCAAUAUUACGUUGA, for which the “self-splicing fitness (ln)” value (30 °C) was -1.64 ± 0.2 and the “self-splicing fitness (ln)” value (37 °C) is -1.12 ± 0.23.
On to ACUCAGCAAUAUUACGAGUC, for which the “self-splicing fitness (ln)” value (30 °C) is -5.21 ± 0.29 and the “self-splicing fitness (ln)” value (37 °C) is -2.97 ± 0.2.
For the sequence CCCAAGCAAUAUUACGGACC, the “self-splicing fitness (ln)” value is -2.96 ± 0.18 (30 °C) and -2.29 ± 0.26 (37 °C).
Taken in the same sequence, the figures for UUUGAGCAAUAUUACGGUAA were -2.38 ± 0.29 and -1.94 ± 0.25.
UUUAAGCAAUAUUACGCGUA: the “self-splicing fitness (ln)” value was -1.4 ± 0.14 (30 °C) and -0.828 ± 0.13 (37 °C).
On to GUUGAGCAAUAUUACGGUAC, for which the “self-splicing fitness (ln)” value (30 °C) is -3.45 ± 0.34 and the “self-splicing fitness (ln)” value (37 °C) was -1.79 ± 0.38.
Taken in the same sequence, the figures for UCUAAGCAAUAUUACGGUCA were -1.31 ± 0.12 and -0.792 ± 0.12.
In the case of AGUCAGCAAUAUUACGAGGG, the “self-splicing fitness (ln)” value is, setting by setting: (30 °C) -4.73 ± 0.31; (37 °C) -3.06 ± 0.25.
Taken in the same sequence, the figures for UCUUAGCAAUAUUACGGCUU were -3.65 ± 0.41 and -2.63 ± 0.48.
Taken in the same sequence, the figures for GACGAGCAAUAUUACGGCAA were -1.91 ± 0.2 and -0.607 ± 0.14.
Taken in the same sequence, the figures for CAAUAGCAAUAUUACGGUCG were -0.0402 ± 0.066 and 0.0285 ± 0.087.
As for UACGAGCAAUAUUACGUAAC, the “self-splicing fitness (ln)” value runs as follows: (30 °C) -4.91 ± 0.41; (37 °C) -3.7 ± 0.3.
Taken in the same sequence, the figures for GGCUAGCAAUAUUACGCACC were -1.61 ± 0.24 and -1.78 ± 0.26.
Consider CGCCAGCAAUAUUACGUUAU, for which the “self-splicing fitness (ln)” value was -3.32 ± 0.16 (30 °C) and -2.22 ± 0.18 (37 °C).
Take AGACAGCAAUAUUACGGUGA: the “self-splicing fitness (ln)” value is, setting by setting: (30 °C) -1.49 ± 0.074; (37 °C) -0.921 ± 0.095.
Taken in the same sequence, the figures for AGAUAGCAAUAUUACGCUCU were -3.31 ± 0.23 and -1.46 ± 0.21.
Taken in the same sequence, the figures for AGUCAGCAAUAUUACGUCCA were -1.25 ± 0.13 and -1.05 ± 0.15.
In the case of UAACAGCAAUAUUACGGCCC, the “self-splicing fitness (ln)” value (30 °C) was -2.08 ± 0.35.
For the sequence UUCCAGCAAUAUUACGUGAG, the “self-splicing fitness (ln)” value came out at 0.114 ± 0.062 (30 °C) and 0.597 ± 0.08 (37 °C).
Taken in the same sequence, the figures for UCGGAGCAAUAUUACGGUGA were -1.82 ± 0.27 and -1.05 ± 0.2.
Taken in the same sequence, the figures for AGUGAGCAAUAUUACGAUGG were -3.11 ± 0.24 and -2.26 ± 0.25.
Consider GGGAAGCAAUAUUACGAGCA, for which the “self-splicing fitness (ln)” value runs as follows: (30 °C) -2.18 ± 0.32; (37 °C) -0.522 ± 0.18.
In the case of UGGAAGCAAUAUUACGAUGU, the “self-splicing fitness (ln)” value (30 °C) is -1.75 ± 0.21 and the “self-splicing fitness (ln)” value (37 °C) was -2 ± 0.22.
Taken in the same sequence, the figures for CGACAGCAAUAUUACGGUAA were -1.81 ± 0.13 and -1.44 ± 0.11.
As to ACGAAGCAAUAUUACGAUAA, the “self-splicing fitness (ln)” value runs as follows: (30 °C) -1.62 ± 0.15; (37 °C) -1.39 ± 0.14.

For the origin of these results see the supplement of paper PMC7877785.
